Measured values taken from patent US20250011433A1 (GLIKNIK, published 2025).
Residue numbers refer to the chain shown, from its start. Numbers in names are those of the source. Read-outs that look alike come from different tables or passages of the source. Blank lines part the entries; values can stand above or below the binder they belong to.

Legend:
FcγRIIb [1] = molecular target: T1, FcγRIIb (UniProt P31994 46-217, limits assumed); experiment: BLI (Octet)
T1 sequence (looked up): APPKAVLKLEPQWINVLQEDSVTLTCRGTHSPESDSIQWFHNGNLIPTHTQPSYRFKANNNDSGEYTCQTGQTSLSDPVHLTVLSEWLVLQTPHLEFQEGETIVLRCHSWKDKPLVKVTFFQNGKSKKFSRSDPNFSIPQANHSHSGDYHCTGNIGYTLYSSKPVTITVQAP

FcγRI [2] = molecular target: T2, FcγRI (UniProt P12314 16-288); experiment: BLI (Octet)
T2 construct: also called CD64

C1q [3] = molecular target: T3, C1q (UniProt P02745 23-245; P02746 28-253; P02747 29-245); experiment: ELISA on coated C1q
T3 construct: bought C1q coated on ELISA plates at 1 µg/ml; also called complement C1q; complement factor C1q

FcγRI [4] = molecular target: T2, FcγRI; experiment: BLI (Octet); legend: - indicates no binding
Procedure: (§1) Binding of complement-preferential stradomers or parent stradomer G045c to FcγRI, FcγRIIb, FcγRIIIa, FcγRIIa, or FcRn was assessed. RU values of dissociation were measured by biolayer interferometry using a ForteBio Octet instrument. His-tagged receptor proteins were bound to the sensor tip in 1× kinetic analysis buffer from ForteBio after which the on rate of the receptor/protein was measured by transferring the sensor tip to a 1× kinetics buffer containing the purified stradomer of choice. Off rate was measured by transferring the sensor tip to a 1× kinetics buffer, and RU value was calculated from the measured maximum binding using the ForteBio software. Biolayer interferometry detects the binding between a ligand immobilized on the biosensor tip surface and an analyte in solution. When binding occurs it produces an increase in optical thickness at the biosensor tip, which results in a wavelength shift (detected as a response unit of “RU”). The maximum binding level (RU max) is the maximum possible amount of sample binding at equilibrium that saturates the amount of ligand on the sensor surface. The RU 300 is the residual sample binding after 300 seconds of dissociation and is useful to characterize the rate of dissociation of the test article from the test ligand.

FcγRIIIa = FcγRIIIa (UniProt P08637 17-208); experiment: BLI (Octet); legend: - indicates no binding
Procedure: as §1

C1q [5] = molecular target: T3, C1q; experiment: ELISA on coated C1q; remark: listed apart in the source
Procedure: For C1q binding, 96 well plates were coated with C1q (Sigma Cat #: C1740 1 μg/ml) overnight in PBS. After coating, plates were washed 3 times with standard wash buffer (iX PBS+0.05% Tween 20) and blocked with blocking buffer (1% BSA+1× PBS+0.05% Tween 20) for 2 hours at RT. Following blocking, plates were incubated with compound diluted in blocking buffer 100 μL/well and washed 3 times with standard washing buffer. C1q-bound compound was detected by incubation with 1:5000 biotinylated mouse anti-human IgG1(Cat #555869, BD Biosciences) and Streptavidin-HRP (Cat #: 7100-05 Southern Biotech) (100 μl/well) for 1 hour at room temperature followed by washing 3 times with washing buffer, after which color was developed using the standard TMB method according to manufacturer's protocol for 15 minutes. Absorbance was read at 450 nm.

FcγRIIb [6] = molecular target: T1, FcγRIIb; experiment: BLI (Octet); remark: listed apart in the source
Procedure: as §1

FcγRI [7] = molecular target: T2, FcγRI; experiment: BLI (Octet); remark: listed apart in the source
Procedure: as §1

FcγRIIa = molecular target: T4, FcγRIIa (UniProt P12318 36-218, limits assumed); experiment: BLI (Octet); legend: - indicates no binding
T4 sequence (looked up): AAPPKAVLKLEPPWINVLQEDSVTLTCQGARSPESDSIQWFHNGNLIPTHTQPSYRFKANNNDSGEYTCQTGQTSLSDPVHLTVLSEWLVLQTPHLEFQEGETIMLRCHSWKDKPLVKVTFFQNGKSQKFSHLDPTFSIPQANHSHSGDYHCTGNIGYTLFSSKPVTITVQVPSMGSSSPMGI
Procedure: as §1

mouse FcγRIV = molecular target: T5, mouse FcγRIV (mouse, UniProt A0A0B4J1G0 21-203); experiment: BLI (Octet), FIG. 19 bottom panels
T5 construct: not shown: any purification tag (e.g. His tag) on the soluble recombinant receptor used in biolayer interferometry; not described in the passages seen
T5 sequence: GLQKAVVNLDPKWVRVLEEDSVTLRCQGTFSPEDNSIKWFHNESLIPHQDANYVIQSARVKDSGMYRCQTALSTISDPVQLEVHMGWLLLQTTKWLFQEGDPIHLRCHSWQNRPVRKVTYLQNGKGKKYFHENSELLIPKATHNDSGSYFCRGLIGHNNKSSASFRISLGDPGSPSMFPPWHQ

mouse FcγRIIb = molecular target: T6, mouse FcγRIIb (mouse, UniProt P08101 30-207, limits assumed); experiment: BLI (Octet), FIG. 19 bottom panels
T6 sequence (looked up): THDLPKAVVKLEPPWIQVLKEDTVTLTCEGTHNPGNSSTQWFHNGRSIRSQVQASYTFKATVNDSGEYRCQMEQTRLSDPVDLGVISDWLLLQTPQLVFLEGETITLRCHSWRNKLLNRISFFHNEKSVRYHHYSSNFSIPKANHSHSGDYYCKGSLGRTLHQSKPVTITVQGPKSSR

mouse FcγRIII = molecular target: T7, mouse FcγRIII (mouse, UniProt P08508 31-215, limits assumed); experiment: BLI (Octet), FIG. 19 bottom panels
T7 sequence (looked up): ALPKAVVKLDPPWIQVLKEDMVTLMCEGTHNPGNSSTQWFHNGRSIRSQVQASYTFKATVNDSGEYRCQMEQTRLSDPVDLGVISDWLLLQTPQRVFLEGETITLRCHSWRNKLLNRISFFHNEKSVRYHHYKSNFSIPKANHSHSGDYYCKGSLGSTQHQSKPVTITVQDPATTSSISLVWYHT

C3 complement component = molecular target: T8, C3 complement component (UniProt P01024 23-1663); experiment: ELISA on coated C3
T8 construct: bought protein coated on ELISA plates at 1 µg/ml

C1q [8] = molecular target: T3, C1q; experiment: ELISA on coated C1q; remark: listed apart in the source
FcγRIIb [9] = molecular target: T1, FcγRIIb; experiment: BLI (Octet); legend: - indicates no binding
Procedure: as §1

Chain of FcγRIIIa (P08637 17-208 limits assumed): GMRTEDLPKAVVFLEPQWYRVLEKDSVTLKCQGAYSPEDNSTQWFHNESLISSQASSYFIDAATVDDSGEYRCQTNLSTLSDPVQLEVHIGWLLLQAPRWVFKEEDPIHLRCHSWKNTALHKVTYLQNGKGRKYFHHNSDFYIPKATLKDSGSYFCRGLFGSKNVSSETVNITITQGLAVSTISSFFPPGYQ
T3 sequence (P02745 23-245 limits assumed, chain 1 of 3): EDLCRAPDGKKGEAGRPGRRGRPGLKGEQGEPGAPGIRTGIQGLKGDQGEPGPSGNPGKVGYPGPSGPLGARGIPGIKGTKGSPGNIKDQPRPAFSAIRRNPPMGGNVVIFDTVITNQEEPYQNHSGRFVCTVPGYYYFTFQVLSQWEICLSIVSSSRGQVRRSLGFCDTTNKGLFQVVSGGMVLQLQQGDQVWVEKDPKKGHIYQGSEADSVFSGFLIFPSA
T3 sequence (P02746 28-253 limits assumed, chain 2 of 3): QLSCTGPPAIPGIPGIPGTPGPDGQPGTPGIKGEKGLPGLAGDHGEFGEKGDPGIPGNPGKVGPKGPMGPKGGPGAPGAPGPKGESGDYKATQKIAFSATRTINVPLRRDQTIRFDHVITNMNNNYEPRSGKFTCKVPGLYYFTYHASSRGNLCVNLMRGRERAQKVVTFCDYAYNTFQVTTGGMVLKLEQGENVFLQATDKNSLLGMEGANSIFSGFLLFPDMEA
T3 sequence (P02747 29-245 limits assumed, chain 3 of 3): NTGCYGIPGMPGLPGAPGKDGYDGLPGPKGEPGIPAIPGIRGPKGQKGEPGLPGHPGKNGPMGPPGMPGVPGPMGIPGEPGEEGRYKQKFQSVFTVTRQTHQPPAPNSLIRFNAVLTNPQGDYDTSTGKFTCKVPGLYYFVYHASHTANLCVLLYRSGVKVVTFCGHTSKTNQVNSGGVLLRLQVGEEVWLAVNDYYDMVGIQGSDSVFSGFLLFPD
T2 sequence (P12314 16-288 limits assumed): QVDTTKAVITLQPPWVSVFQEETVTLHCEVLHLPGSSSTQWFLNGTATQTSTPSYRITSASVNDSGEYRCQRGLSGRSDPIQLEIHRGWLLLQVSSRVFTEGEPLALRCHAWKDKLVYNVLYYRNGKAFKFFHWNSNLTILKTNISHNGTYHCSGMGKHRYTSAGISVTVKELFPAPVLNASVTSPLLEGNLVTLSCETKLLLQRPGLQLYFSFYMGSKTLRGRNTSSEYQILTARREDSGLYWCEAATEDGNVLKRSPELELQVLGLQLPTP

binding result (FcγRIIb [1]): binds
binding result (FcγRI [2]): binds
binding result (C1q [3]): no binding
B1: G999 (Fc fusion)
chain: ERKCCVECPPCPEPKSCDKTHTCPPCPAPELLRGPSVFLFPPKPKDTLMISRTPEVTCVVVDVEFEDPEVKFNWYVDGVEVHNAKTKPREEQYNSTYRVVSVLTVLHQDWLNGKEYKCKVTNKALPAPIEKTISKAKGQPREPQVYTLPPSRDELTKNQVSLTCLVKGFYPSDIAVEWESNGQPENNYKTTPPVLDSDGSFFLYSKLTVDKSRWQQGNVFSCSVMHEALHNHYTQKSLSLSPGK
notes: G019 background, G236R/S267E/H268F/S324T

binding result (C1q [5]): binds
binding result (FcγRIIb [6]): binds
binding result (FcγRI [4]): no binding
binding result (FcγRIIIa): no binding
B3: G1050 (Fc fusion)
chain: EPKSCDKTHTCPPCPAPPVAGPSVFLFPPKPKDTLMISRTPEVTCVVVDVEFEDPEVKFNWYVDGVEVHNAKTKPREEQYASTYRVVSVLTVLHQDWLNGKEYKCKVTNKAFPAPIEKTISKAKGQPREPQVYTLPPSRDELTKNQVSLTCLVKGFYPSDIAVEWESNGQPENNYKTTPPVLDSDGSFFLYSKLTVDKSRWQQGNVFSCSVMHEALHNHYTQKSLSLSPGKERKCCVECPPCP
notes: G045c background, E233P/L234V/L235A/S267E/H268F/N297A/S324T/L328F, G236 deleted; leader 1-20 cleaved

binding result (C1q [8]): no binding
binding result (FcγRI [2]): binds
B7: G1045 (Fc fusion)
chain: EPKSCDKTHTCPPCPAPELLGGDSVFLFPPKPKDTLMISRTPEVTCVVVPVEFEDPEVKFNWYVDGVEVHNAKTKPREEQYNSTYRVVSVLTVLHQDWLNGKEYKCKVTNKALPAPIEKTISKAKGQPREPQVYTLPPSRDELTKNQVSLTCLVKGFYPSDIAVEWESNGQPENNYKTTPPVLDSDGSFFLYSKLTVDKSRWQQGNVFSCSVMHEALHNHYTQKSLSLSPGKERKCCVECPPCP

binding result (C1q [5]): binds
binding result (FcγRI [7]): binds
binding result (FcγRIIb [9]): no binding
binding result (FcγRIIIa): no binding
B8: G1033 (Fc fusion)
chain: B7 chain with L19A, L20A, D23P, P50D, N82A
notes: G045c background, L234A/L235A/S267E/H268F/N297A/S324T; leader 1-20 cleaved; also called G1033 (DEL); G1033 (EEM)

binding result (C1q [5]): binds
binding result (FcγRIIb [6]): binds
binding result (FcγRI [7]): binds
binding result (FcγRIIa): no binding
binding result (FcγRIIIa): no binding
B9: G998 (Fc fusion)
chain: B7 chain with D23P, P50D, N82A
notes: G045c background, S267E/H268F/N297A/S324T; leader 1-20 cleaved; also called G998 (DEL); G998 (EEM)

Further lines, the binder ahead of its results:

B2: G1022 (Fc fusion)
chain: B3 chain with F112L
notes: G045c background, E233P/L234V/L235A/S267E/H268F/N297A/S324T, G236 deleted; leader 1-20 cleaved
binding result (FcγRI [4]): no binding
binding result (FcγRIIIa): no binding

B4: G994 (Fc fusion)
chain: B7 chain with E18P, G21R, D23P, P50D
notes: G045c background, E233P/G236R/S267E/H268F/S324T; leader 1-20 cleaved; also called G994 (DEL); G994 (EEM)
binding result (C1q [5]): binds
binding result (FcγRIIb [6]): binds
binding result (FcγRI [7]): binds
binding result (FcγRIIa): no binding
binding result (FcγRIIIa): no binding

B5: G1047 (Fc fusion)
chain: B7 chain with P50D, L113F
binding result (FcγRIIb [1]): binds
binding result (FcγRI [2]): binds

B6: G996 (Fc fusion)
chain: B7 chain with G21R, D23P, P50D
notes: G045c background, G236R/S267E/H268F/S324T; leader 1-20 cleaved
binding result (mouse FcγRIV): no binding
binding result (mouse FcγRIIb): no binding
binding result (mouse FcγRIII): no binding
binding result (C1q [5]): binds
binding result (FcγRIIb [6]): binds
binding result (FcγRI [7]): binds
binding result (C3 complement component): no binding (tested: 100 µg/ml top concentration)
binding result (FcγRIIIa): no binding
